The values below come from patent publication US20150082475.

The data set deals with light-harvesting complex II (LHCII) in thylakoids of the Arabidopsis thaliana stn7 stn8 double mutant.

B1: recombinant OsPSTOL1 (OsPSTOL1rec) (protein)
chain: MLLCQRASKNAPRIESFLQKQETSNPKRYTLSEVKRMTKSFAHKLGRGGFGTVYKGSLPDGREIAVKMLKDTKGDGEEFINEVAGISKTSHINVVNLLGFSLQGSKRALIYEYMPNGSLDRYSFGDSSVQGDNTLSWDRLFNIIVGIARGLEYLHCHCNIRIVHFDIKPQNILLAQDFCPKISDFGLSKLCHLKESRISINGLRGTPGYIAPEVFSRQYGSASSKSDVYSYGMVVLEMAGAKKNINVSTGSSSKYFPQWLYDNLDQFCCPTGEISSQTTDLVRKMVVVGLWCIQLVPTDRPSMREVLEMLESNGRDLPLPPKGLHHHHHH
Consider B1, for which the “phosphorylation of LHCII, in vitro phosphorylation assay with phosphothreonine-specific immunoblot” value is “recombinant OsPSTOL1 protein restores phosphorylation of the light-harvesting complex II (LHCII) in the Arabidopsis stn7 stn8 double mutant (lane 4)”.
